This experiment concerns the target T1, RUVBL1/2 hetero-hexamer (purified, recombinant) (UniProt Q9Y265 1-456; Q9Y230 1-463).
T1 construct: RUVBL1; RUVBL2, untagged; Printed as a hetero-hexamer; also called RUVBL1/2 complex; source: E. coli BL21, co-expressed, purified (Ni-NTA, TEV cleavage, SEC on Superose 6); not shown: His6, N-terminal, cleaved
Put plainly: pull-down; MBP-KLF5 (10 μg) or MBP (5 μg) on amylose resin; 10 μg RUVBL1, 10 μg RUVBL2 or 20 μg RUVBL1/2 hetero-hexamer added for 2 h in 50 mM Na3PO4 pH 7.5, 0.1 mM EDTA, 200 mM NaCl, 1 mM DTT, 5% glycerol; washes with 250 mM NaCl; maltose elution; Western blot; 4 °C. The note with it: both partners purified.

T1 sequence (Q9Y265 whole entry, chain 1 of 2): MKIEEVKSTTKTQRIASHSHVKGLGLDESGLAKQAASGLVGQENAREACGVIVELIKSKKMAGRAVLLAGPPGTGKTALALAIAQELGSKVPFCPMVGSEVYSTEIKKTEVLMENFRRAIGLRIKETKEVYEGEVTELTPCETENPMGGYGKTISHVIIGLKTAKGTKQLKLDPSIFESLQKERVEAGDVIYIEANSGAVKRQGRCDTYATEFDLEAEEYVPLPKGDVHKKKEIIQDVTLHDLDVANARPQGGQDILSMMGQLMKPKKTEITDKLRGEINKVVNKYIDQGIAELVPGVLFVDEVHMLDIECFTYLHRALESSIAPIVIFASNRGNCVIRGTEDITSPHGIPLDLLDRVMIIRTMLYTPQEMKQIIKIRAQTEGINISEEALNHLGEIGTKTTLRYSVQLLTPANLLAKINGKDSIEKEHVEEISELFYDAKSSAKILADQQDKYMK
T1 sequence (Q9Y230 whole entry, chain 2 of 2): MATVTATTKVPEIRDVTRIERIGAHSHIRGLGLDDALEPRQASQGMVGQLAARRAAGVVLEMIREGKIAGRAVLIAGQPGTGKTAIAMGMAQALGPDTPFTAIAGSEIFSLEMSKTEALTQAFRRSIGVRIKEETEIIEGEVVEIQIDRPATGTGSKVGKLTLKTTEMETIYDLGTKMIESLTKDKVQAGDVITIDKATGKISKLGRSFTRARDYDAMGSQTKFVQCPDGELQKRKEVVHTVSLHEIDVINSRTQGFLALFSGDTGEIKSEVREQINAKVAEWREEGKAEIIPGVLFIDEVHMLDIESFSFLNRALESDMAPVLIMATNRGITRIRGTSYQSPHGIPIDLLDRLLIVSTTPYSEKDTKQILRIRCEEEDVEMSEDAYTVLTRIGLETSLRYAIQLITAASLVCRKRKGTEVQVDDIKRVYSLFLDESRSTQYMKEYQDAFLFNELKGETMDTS

B1: recombinant MBP-tagged KLF5 (natural protein)
chain: not shown
notes: KLF5; For the pull-down with pure proteins the MBP-KLF5 was not previously subject to the amylose purification; also called MBP-KLF5; 6xHis-TEV-MBP-KLF5; source: E. coli BL21-CodonPlus (DE3)-RIPL, purified (Ni-NTA, TEV cleavage, SEC; also amylose resin for the mass spectrometry experiments); not shown: His6, N-terminal, cleaved; MBP, N-terminal, kept
Consider B1, for which the binding result is given as “binds”.

The values above are taken from publication PMC12619835, “KLF5 enables dichotomous lineage programs in pancreatic cancer via the AAA+ ATPase coactivators RUVBL1 and RUVBL2” (Nature Communications, 2025).
